Test [1] addresses T1, Mus musculus Mfsd2a with a single point mutation (Q67H), purified in LMNG/CHS/GDN detergent (Mus musculus, UniProt Q9DA75 1-534, limits assumed).
T1 construct: Membrane transporter expressed in HEK293S cells and purified in detergent; also called mouse Mfsd2a Q67H
T1 sequence (looked up): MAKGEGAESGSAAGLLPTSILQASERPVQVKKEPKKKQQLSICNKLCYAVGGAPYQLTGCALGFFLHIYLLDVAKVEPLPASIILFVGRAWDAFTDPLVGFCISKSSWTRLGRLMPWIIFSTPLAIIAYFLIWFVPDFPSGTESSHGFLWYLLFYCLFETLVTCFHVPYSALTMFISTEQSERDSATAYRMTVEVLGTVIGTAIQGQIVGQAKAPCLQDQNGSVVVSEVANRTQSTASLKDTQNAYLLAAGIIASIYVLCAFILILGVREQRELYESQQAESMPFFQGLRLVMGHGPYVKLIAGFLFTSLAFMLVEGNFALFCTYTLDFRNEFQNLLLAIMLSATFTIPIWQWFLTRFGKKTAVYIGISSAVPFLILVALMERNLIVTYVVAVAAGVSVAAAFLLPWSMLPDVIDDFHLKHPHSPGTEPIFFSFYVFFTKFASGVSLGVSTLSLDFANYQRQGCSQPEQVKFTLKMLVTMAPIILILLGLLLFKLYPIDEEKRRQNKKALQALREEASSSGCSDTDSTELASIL
The test is described as follows: cryo-EM of the complex, scFv as fiducial mark. The source says: Mouse Mfsd2a was over-expressed in HEK293 cells and purified for structural studies. A fortuitous loss-of-function single point mutation Q67H (FIG. 6D) was identified that presumably arrests the transporter in an outward-facing conformation based on its location near the typical extracellular gate area in MFS transporters. It was theorized that this might reduce conformational heterogeneity and selected this variant for structural studies. The purified protein was biochemically stable and appeared monodisperse on size exclusion chromatography (FIG. 6A). To obtain the most homogenous samples for cryo-EM studies, the proteins were screened after being purified under various conditions. Mfsd2a purified in lauryl maltose neopentyl glycol/cholesteryl hemisuccinate/glycol-diosgenin (LMNG/CHS/GDN) detergent mixture was selected for further structural studies as particles appeared to be homogeneous in size and shape. Since Mfsd2a is small in size (59 kDa) with few features outside the micelle, it presents challenges for cryo-EM studies. To aid the particle alignment, we used a single-chain variable fragment (scFv) of antibody that binds to the extracellular side of Mfsd2a as a fiducial mark. This strategy permitted determination of the cryo-EM structure of Mfsd2a at 3.5 Å resolution (FIG. 1B; FIGS. 7A-7F).

Test [2] concerns the target T2, Mouse Mfsd2a, wild type (endogenous on brain endothelial cells of wildtype mice); stably expressed in HEK293 … (mouse, UniProt Q9DA75 1-534).
T2 construct: whole, on cells; also called endogenous Mfsd2a
T2 sequence (looked up): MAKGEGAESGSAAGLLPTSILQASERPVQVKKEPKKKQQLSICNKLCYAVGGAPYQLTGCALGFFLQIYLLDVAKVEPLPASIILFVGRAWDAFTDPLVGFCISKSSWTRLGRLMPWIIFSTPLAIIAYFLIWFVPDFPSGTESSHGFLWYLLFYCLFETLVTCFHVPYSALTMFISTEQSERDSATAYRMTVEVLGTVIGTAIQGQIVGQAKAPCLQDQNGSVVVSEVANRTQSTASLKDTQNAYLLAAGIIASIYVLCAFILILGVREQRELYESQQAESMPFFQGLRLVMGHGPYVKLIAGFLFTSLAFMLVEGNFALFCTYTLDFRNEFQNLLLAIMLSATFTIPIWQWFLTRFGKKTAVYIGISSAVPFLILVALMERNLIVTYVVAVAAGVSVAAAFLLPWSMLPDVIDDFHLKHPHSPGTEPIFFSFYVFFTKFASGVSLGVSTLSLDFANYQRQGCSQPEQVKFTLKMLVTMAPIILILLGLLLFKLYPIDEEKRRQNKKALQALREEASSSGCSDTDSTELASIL
Nature of the test: IV injection into adult mice (10 ug/ml), brain sections stained with fluorescent secondary antibody. How it is done: The specificity of the antibody described herein (D1, with CDRs of SEQ ID NOs: 1-6) was tested. IV-injection of D1 antibody or control antibody was IV injected at 10 ug/ml to adult mice. The antibodies were permitted to circulate for 15 minutes, followed by 10 ml PBS perfusion and fixation. Brains were sectioned and stained with fluorescent labeled secondary antibody. […] It specifically binds to the endogenous Mfsd2a that is expressed on the luminal side of the brain endothelial cell plasma membrane in the wildtype mice, absence in the Mfsd2a knockout mice. Control antibody injected animals show no staining.

B1: Anti-Mfsd2a scFv (ScFv of SEQ ID NO: 7) (scFv)
scFv: QPSSVSANPGETVKITCSGARYGYGWYQQKSPGSALVTLIYANNIRPSAIPSRFSGSKSGSTATLTITGVRAEDEAVYYCGNEDSITYAAFGAGTTLTVLGGSSRSSGGGGSSGGGGSAVTLDESGGGLQTPKGGLSLVCKASGFTFSSYDMAWVRQAPGKGLEWVAGITSTGSYTNYGAAVKGRATISRDNGQSTVRLQLNSLRAEDTATYFCAKSSFGCPYSCWYDIAGSIDAWGHGTEVIVS
notes: Isolated by phage display from chickens immunized with lipoparticles containing mouse Mfsd2a; Expressed as an scFv-Fc fusion with a human Fc; the scFv fragment was released by papain cleavage and purified by ion exchange; also called single-chain variable fragment
Turning to B1, the binding result in test [1] is on record as “binds”.

B2: D1 antibody (with CDRs of SEQ ID NOs: 1-6) (antibody, V domains shown)
VH: AVTLDESGGGLQTPKGGLSLVCKASGFTFSSYDMAWVRQAPGKGLEWVAGITSTGSYTNYGAAVKGRATISRDNGQSTVRLQLNSLRAEDTATYFCAKSSFGCPYSCWYDIAGSIDAWGHGTEVIVSS
VL: ALTQPSSVSANPGETVKITCSGARYGYGWYQQKSPGSALVTLIYANNIRPSAIPSRFSGSKSGSTATLTITGVRAEDEAVYYCGNEDSITYAAFGAGTTLTVL
In the case of B2, the binding result in test [2] was “binds”.

For the origin of these results see patent publication US20240117033A1 (Harvard, published 2024).
